Measured values from PMC10941009, “Structural basis for specific DNA sequence recognition by the transcription factor NFIL3” (The Journal of Biological Chemistry, 2024).

Key:
Experiment in all cases: ITC; ITC: 20 mM Tris pH 7.5, 150 mM NaCl, 25 °C; EMSA: same buffer, 4 °C, 6% native gel in 0.5x TBE
Conditions in all cases: protein: recombinant; tags: His6-SUMO removed by TEV; chain copies: 2; blunt
NFIL3 R95Q = target: T1, NFIL3 R95Q (human, UniProt Q16649 65-161, R95Q)
T1 sequence: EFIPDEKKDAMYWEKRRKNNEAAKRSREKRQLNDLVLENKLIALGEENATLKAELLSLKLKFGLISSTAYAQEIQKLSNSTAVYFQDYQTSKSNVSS

NFIL3 N84A = target: T2, NFIL3 N84A (human, UniProt Q16649 65-161, N84A)
T2 sequence: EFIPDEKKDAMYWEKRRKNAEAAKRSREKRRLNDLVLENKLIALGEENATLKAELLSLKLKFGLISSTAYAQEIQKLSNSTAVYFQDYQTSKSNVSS

NFIL3 A113T = target: T3, NFIL3 A113T (human, UniProt Q16649 65-161, A113T)
T3 sequence: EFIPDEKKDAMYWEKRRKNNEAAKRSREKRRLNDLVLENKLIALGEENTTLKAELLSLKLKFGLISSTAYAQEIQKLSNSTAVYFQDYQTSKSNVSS

NFIL3 E111Q = target: T4, NFIL3 E111Q (human, UniProt Q16649 65-161, E111Q)
T4 sequence: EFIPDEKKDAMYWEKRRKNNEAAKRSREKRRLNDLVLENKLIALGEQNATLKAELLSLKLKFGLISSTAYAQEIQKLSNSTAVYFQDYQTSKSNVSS

NFIL3 N112D = target: T5, NFIL3 N112D (human, UniProt Q16649 65-161, N112D)
T5 sequence: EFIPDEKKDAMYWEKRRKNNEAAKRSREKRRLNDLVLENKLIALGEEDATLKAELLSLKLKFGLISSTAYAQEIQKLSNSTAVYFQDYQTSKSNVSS

NFIL3 E78G = target: T6, NFIL3 E78G (human, UniProt Q16649 65-161, E78G)
T6 sequence: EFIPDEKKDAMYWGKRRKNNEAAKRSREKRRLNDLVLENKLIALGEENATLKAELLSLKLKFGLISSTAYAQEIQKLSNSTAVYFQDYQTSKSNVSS

NFIL3 A113V = target: T7, NFIL3 A113V (human, UniProt Q16649 65-161, A113V)
T7 sequence: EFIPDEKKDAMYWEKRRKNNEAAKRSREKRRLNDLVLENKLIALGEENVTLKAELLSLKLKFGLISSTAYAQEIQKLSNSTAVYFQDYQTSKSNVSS

NFIL3 R94H = target: T8, NFIL3 R94H (human, UniProt Q16649 65-161, R94H)
T8 sequence: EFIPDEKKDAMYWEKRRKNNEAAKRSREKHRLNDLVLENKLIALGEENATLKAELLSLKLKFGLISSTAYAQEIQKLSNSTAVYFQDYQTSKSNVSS

C/EBPα D320E = C/EBPα D320E (human, UniProt P49715 281-340, D320E)
NFIL3 E111D = target: T9, NFIL3 E111D (human, UniProt Q16649 65-161, E111D)
T9 sequence: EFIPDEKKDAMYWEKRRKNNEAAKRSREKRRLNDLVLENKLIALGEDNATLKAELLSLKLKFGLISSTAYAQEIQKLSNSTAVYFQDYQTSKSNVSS

C/EBPβ E309D = C/EBPβ E309D (human, UniProt P17676 259-336, E309D)
Sequence of C/EBPβ E309D (P17676 259-336 E309D): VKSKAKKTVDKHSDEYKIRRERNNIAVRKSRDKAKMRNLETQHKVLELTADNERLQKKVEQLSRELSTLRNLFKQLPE

Sequence of C/EBPα D320E (P49715 281-340 D320E): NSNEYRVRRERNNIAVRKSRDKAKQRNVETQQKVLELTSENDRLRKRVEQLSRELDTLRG

B1: TTACGTAA (dsDNA)
DNA 1: CATTACGTAATG
DNA 2: CATTACGTAATG
For B1, the Kd (NFIL3 R95Q) was 8.4 ± 0.72 µM, the Kd (NFIL3 N84A) was 1.49 ± 0.11 µM and the Kd (NFIL3 A113T) was 0.22 ± 0.03 µM. The Kd (NFIL3 E111Q) was 0.2 ± 0.02 µM, the Kd (NFIL3 N112D) was 2.15 ± 0.16 µM and the Kd (NFIL3 E78G) was 2.18 ± 0.15 µM. It also gave a Kd (NFIL3 A113V) of 0.12 ± 0.01 µM, a Kd (NFIL3 R94H) of 4.01 ± 0.74 µM and a binding signal (C/EBPα D320E) of ~5 fold stronger than WT. For the same binder, the binding signal (NFIL3 E111D) was ~8 fold weaker than WT and the binding signal (C/EBPβ E309D) was ~4 fold weaker than WT.
